Experimental data from the supplement of paper PMC9170038.

Tested on: MS2 coat protein
Experiment: apparent KD of MS2 coat protein; designed switch direction (-1 OFF switch, 1 ON switch): 1; higher = weaker reporter binding
In short: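 SNAP-549-labelled MS2 coat protein was titrated, doubling from 0.7 or 1.5 nM to 3 µM, over designed RNA switches transcribed on Illumina chips by stalled E. coli RNA polymerase. Runs were done without input, with 200 uM small-molecule ligand, or with an oligonucleotide input. Apparent KD is the per-design median over clusters of curve-fitted normalised fluorescence.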

[1] = input ligand: microRNA oligo, concentration not stated
[2] = Eterna round: R95, input ligand: FMN 200 uM
[3] = Eterna round: R95, input ligand: microRNA oligo, concentration not stated
[4] = Eterna round: R95, input ligand: none

Sequence | apparent KD of MS2 coat protein (input ligand: FMN 200 uM) [nM] | apparent KD of MS2 coat protein [1] [nM] | apparent KD of MS2 coat protein (input ligand: none) [nM] | apparent KD of MS2 coat protein [2] [nM] | apparent KD of MS2 coat protein [3] [nM] | apparent KD of MS2 coat protein [4] [nM]
GGGAAACCUCAAGGAUAUGCUACCGUUUCGGUAGCAGAAGGUGAUCACAUGAGGAUCACCCAUGUAUGCAUGCGUGAGCGUGCU [JL SSNG1 3.57] (Eterna round: R96, puzzle: Same State NG 1) | 42.6 | 71.3 | 47 |  |  | 
GGGAGACAUGAGGAUCACCCAUGUGGGAGGGAACGAGGAUAUGUAAGGAGAAAGAAUAGAACAGAAGGCGUAGGUG [JR_SS1_Sub021] (puzzle: Same State 1) |  |  |  | 35.8 | 55.5 | 60.8
GGGAGAGACGCAGGAUAUGGUGAGGAUUACCCACUAGAAGGGUGGACAUGAGAAUCGAACAUGAGGAUCACCCAUGUUCUGAGG (Eterna round: R96, puzzle: Same State NG 1) | 64 | 44.3 | 66 |  |  | 
GGGAGAGACGGAGGAUAUGGUGGGAGAUAGGGACUAGAAGGUUGGACAUGAGAAUCGAACAUGAGGAUCACCCAUGUUGGGAGG [iteri-3] (Eterna round: R96, puzzle: Same State NG 1) | 51 | 28.3 | 63.2 |  |  | 
GGGAGAGGCGCAGGAUAUGGUGAGGAUCACCCACUAGAAGGGUGCACAUGAGAAUCGGACAUGAGGAUCACCCAUGUCCGGCGC (Eterna round: R96, puzzle: Same State NG 1) | 375 | 143 | 445 |  |  | 
GGGCCAGCCUGUGCUGGGCCUUCGCAUGCACAUGAGGAUCACCCAUGUCGUGUACAUGCUUUUUGCUCGUCUUUAAA [Photon Torp-10] (puzzle: Sensor for hsa-mir-208a) |  |  |  | 40.9 | 12.6 | 42.7
GGGCCAGCUUGUGCUGGGCCUUCGCAUGCACAUGAGGAUCACCCAUGUCGUGUACAUGCUUGGUGCUCGUCUUUAAA [Photon Torp-12] (puzzle: Sensor for hsa-mir-208a) |  |  |  | 399 | 15.7 | 266
GGGCCAGCUUUUGCUGGGCCAAAGCUUGCACAUGAGGAUCACCCAUGUCGUGUACACGCUUCCUGCCCGUCUUGUUU [Photon Torp-20] (puzzle: Sensor for hsa-mir-208a) |  |  |  | 26.5 | 16.6 | 29.4
GGGCUCUACGGAGGAUAUUCAACACAUGAGGAUCACCCAUGUCAGCCUCCCUGAUCCAGGGAAGCGAAGAAGGCUGCGAGGACG [Eternabot solution 35] (Eterna round: R96, puzzle: Same State NG 2) | 29.1 | 21.8 | 34.5 |  |  | 
GGUAAACAUGAGGAUCACCCAUGUAAUAAUAUGGGAGGAUAUGGGAAUUAAUUAAUUAAACCAGAAGGCCUAAUUG [Mat - Same State 1 - D85] (Eterna round: R96, puzzle: Same State 1) | 32 | 104 | 135 |  |  | 
GGUAAACAUGAGGAUCACCCAUGUAAUAAUAUGGGAGGAUAUGGGAAUUAAUUAAUUAAACCAGAAGGCCUAAUUG [Mat - Same State 1 - D85] (puzzle: Same State 1) |  |  |  |  | 167 | 
GGUACCAACACAGGAUAUGCUAUCCUUUGGGUAGCAGAAGGGUGGUACAUGAGGAUCACCCAUGUGGUGCCAGGGCGUGAGCCC [JL SSNG1 1.95] (Eterna round: R96, puzzle: Same State NG 1) | 383 | 1190 | 4440 |  |  | 
